Results on 14 molecules are retold here after CN116284408A (SUNSHINE GUOJIAN PHARMACEUTICAL SHANGHAI CO LTD, dated 2023).

Positions count from the first letter of the chain named.

To fix the notation:
B1: hu-27A3 (antibody, human IgG1, kappa, V domains shown)
VH: QVQLVQSGAEVKKPGASVKVSCKASGYSFTIYWMHWVRQAPGQGLEWIGMSHPSDSESRLNQKFKDRATLTVDKSTSTAYMELSSLRSEDTAVYYCSRPYYGSSAWFADWGQGTLVTVSA
VL: DIVMTQSPDSLAVSLGERATINCKSSQSLLNSSNQKNYLAWYQQKPGQSPKLLIYFASTRESGVPDRFSGSGSGTDFTLTISSLQAEDVAVYYCQQHYSFPLTFGAGTKLELRR
notes: Humanized IgG1/kappa, made in HEK-293E cells; also called 27A3人源化抗体; 人源化后的27A3
B2: hu-19E11 (antibody, human IgG1, kappa, V domains shown)
VH: QVQLVQSGAEVKKPGASVKVSCKASGFSFTGYNMNWVRQAPGQSLEWIGNIDPYYGGTTYNQKFKGRATLTVDISISTAYMELSRLRSDDTAVYFCARSVTTVGYPMDYWGQGTSVTVSS
VL: B1 VL with S33Y, Q35H, Y38C, Y55S, T59A, Y93F, Q95H, S99T, F100S, R113K
notes: Humanized IgG1/kappa, made in HEK-293E cells; also called 19E11人源化抗体; 人源化后的19E11
B3: ch-27A3 (antibody, human IgG1, kappa, V domains shown)
VH: QVQLQQPGAELVRPGASVKLSCKASGYSFTIYWMHWVKQRPGQGLEWIGMSHPSDSESRLNQKFKDKATLTVDKSSSTAYMQLSSPTSEDSAVYYCSRPYYGSSAWFADWGQGTLVTVSA
VL: DIVMTQSPSSLAMSVGQKVTMSCKSSQSLLNSSNQKNYLAWYQQKPGQSPKLLIYFASTRESGVPDRFIGSGSGTDFTLSISSVQAEDLADYFCQQHYSFPLTFGAGTKLELRR
notes: also called 嵌合抗体ch-27A3
B4: ch-19E11 (antibody, human IgG1, kappa, V domains shown)
VH: EVQLQQSGPELEKPGASVKISCKASGFSFTGYNMNWVKQSNGKSLEWIGNIDPYYGGTTYNQKFKGKATLTVDISSSTAHMELKSLTSEDSAVYFCARSVTTVGYPMDYWGQGTSVTVSS
VL: DIVMTQSPSSLAMSVGQKVTMNCKSSQSLLNSYNHKNCLAWYQQKPGQSPKLLISFASARESGVPDRFIGSGSGTDFTLTISSVQAEDLADYFCHQHYTSPLTFGAGTKLELKR
notes: also called 嵌合抗体ch-19E11
B5: 56E8 (antibody, V domains shown)
VH: QVQLKESGPGLVAPSQSLSITCTVSGFSLTAYGVHWVRQPPGKGLEWLGGIWAGGSTKSNSALMSSLSISKDNSKSQVFLKMNSLQTDDSAMYYCARALFYGYFDVWGAGTTVTVSS
VL: DIVMTQSQKFMSTSVGDRVSVTCKASQSVDTNVAWYQQRPGQSPEALIFSASYRYSGVPDRFTGSGSGTDFTLTISNVQSEDLAEYFCQQYNVYPYTFGGGTNLEIK
B6: 23F6 (antibody, V domains shown)
VH: QVQLKESGPGLVAPSQSLSITCTVSGFSLTAYGVHWVRQPPGKGLEWLGGIWAGGNTQSHSALMSRVSISKDISKRQVFLKMDRLQTDDSAIYYCARALFYGNFDVWGAGTTVTVSS
VL: B5 VL with K9R, N32S, V93S, I106M, K107R
B7: 11C8 (antibody, V domains shown)
VH: B5 VH with K58Q, S66R, N73S, K81R, Y103N
VL: B5 VL with N32S, S76N, V93S
B8: 50A5 (antibody, V domains shown)
VH: B6 VH with V67L, S68T, R76S, K81R, D83N, R84S, I92M
VL: B5 VL with K9R, N32S, V93S
B9: 45D1 (antibody, V domains shown)
VH: EMQLVESGGDLVKPGGSLKLSCAVSGFTFSTYDMSWIRQTPDKRLEWVATISSGGSYTYYPDSVKGRFTISRDNAKNTLYLQMSSLQSEDTAIYYCASLNWGFDHWGQGTTLTVSS
VL: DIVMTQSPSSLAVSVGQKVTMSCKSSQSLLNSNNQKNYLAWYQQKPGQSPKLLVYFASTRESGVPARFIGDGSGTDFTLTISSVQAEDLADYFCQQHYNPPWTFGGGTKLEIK
B10: 8H2 (antibody, V domains shown)
VH: EVNLVESGGGLVKPGGSLKLSCAASGFAFSNYDMSWVRQTPEKRLEWVATISGGGSYTYYPDNVKGRFTISRDNAMNTLYLQMSSLRSEDTALYYCASVNWGFPYWGQGTLVTVSA
VL: DIVMSQSPSSLAVSIGEKVTMSCKSSQSLLYSRNQKNYLAWYQQKPGQSPILLIYWTSTRESGVPDRFTGSGSGTDFTLTISGVKAEDLAVYYCQQYYTSPWTFGGGTRLEIK
B11: 51E12 (antibody, V domains shown)
VH: QVQLQQSGPELVKPGASVKISCKVSGNAFSLSWMNWVKQRPGQGLEWIGRIYPGDGDSNYNGKFKGKATLTADKSSSTVFMQLSSLTSVDSAVYFCANYYGSSSWFVYWGQGTLVTVSA
VL: DVVMTQTPLSLPVSLGDQASISCRSSQSLVHSYGNTYLHWYLQKPGQSPKLLIYKVSNRFSGVPDRFSGSGSGTDFTLKISRVETEDLGVYFCSQSTHFPWTFGGGTKLEIK
B12: 27A3 (antibody, V domains shown)
VH: B3 VH
VL: DIVMTQSPSSLAMSVGQKVTMSCKSSQSLLNSSNQKNYLAWYQQKPGQSPKLLIYFASTRESGVPDRFIGSGSGTDFTLSISSVQAEDLADYFCQQHYSFPLTFGAGTKLELR
notes: Mouse monoclonal antibody from a hybridoma, purified on Protein G; also called 鼠源抗体27A3; 杂交瘤抗体27A3
B13: 19E11 (antibody, V domains shown)
VH: B4 VH
VL: DIVMTQSPSSLAMSVGQKVTMNCKSSQSLLNSYNHKNCLAWYQQKPGQSPKLLISFASARESGVPDRFIGSGSGTDFTLTISSVQAEDLADYFCHQHYTSPLTFGAGTKLELK
notes: Mouse monoclonal antibody from a hybridoma, purified on Protein G; also called 鼠源抗体19E11; 杂交瘤抗体19E11
B14: 15D10 (antibody, V domains shown)
VH: QVQLQQPGAELVKPGASVKMSCKASGYTFTTYWMHWVKQRSGQGLEWIGVIDPSDSYTRYNQKFKDKATLTVDTSSSTAYMHLTSLTSEDSAVYYCTRSGIGNSFIMDYWGQGTSVTVSS
VL: QVVLTQSPAIMPAFPGEKVTISCSASSSVIYMFWYQQKPGSSPKPWIYRTSNLASGVPARFTGSGSGTSYSLTISSMEAEDAATYYCQQYHSYPLTFGVGTKLELK

The first assay has as its target T1, MUC17 on LS174T colorectal cancer cells (human, UniProt Q685J3 26-4493). In words: flow cytometry on LS174T cells.
As usually defined, the EC50 is the concentration at which the effect is half-maximal. B1: the EC50 was found to be 0.03 nM.
The same measure, in the same setting: the same measure for B2: 0.085 nM.

Another assay addresses T2, 人MUC17-Fc蛋白 (human, UniProt Q685J3 4131-4390).
T2 construct: range 4131-4390; No linker is described; also called MUC17抗原; not shown: C-terminal Fc tag
In words: ELISA, coated MUC17 antigen, antibody titrated. In general terms: ELISA stands for enzyme-linked immunosorbent assay.
On to B3, for which the EC50 is 0.0785 nM.
Still for that read-out and setting: the same measure for B4: 0.14 nM.
Same read-out and setting: the same measure for B1: 0.0766 nM; for B2: 0.131 nM.

The target of another assay is T2, 人MUC17-Fc蛋白. Nature of the assay: ELISA, MUC17-Fc coated, murine antibody titrated.
B5 showed a half-maximal effective concentration (EC50) of 0.0276 µg/mL and a Top of 1.97 OD450.
As for B6, the response was half-maximal at 0.0623 µg/mL (EC50) and the Top came out at 2.88 OD450.
For B7, in that order: 0.108 µg/mL and 2.25 OD450.
The matching figures for B8: 0.0813 µg/mL and 2.64 OD450.
The matching figures for B9: 0.036 µg/mL and 2.87 OD450.
As for B10, the response was half-maximal at 0.0556 µg/mL (EC50) and the Top worked out at 2.74 OD450.
The matching figures for B11: 0.0372 µg/mL and 2.88 OD450.
B12 registered a half-maximal effective concentration (EC50) of 0.0202 µg/mL.
In turn, B13 showed an EC50 of 0.0376 µg/mL.
B14 registered an EC50 of 0.0317 µg/mL and a Top of 2.79 OD450.

In a further assay the target is T2, 人MUC17-Fc蛋白. Nature of the assay: ELISA, coated MUC17 antigen, chimeric antibody titrated.
As for B3, the EC50 turned out to be 0.0785 nM.
On the same count and under the same terms, for B4 the value was 0.14 nM.

Another assay addresses MUC17 on LS174T colorectal cancer cells (human, UniProt Q685J3 26-4493). Nature of the assay: flow cytometry on LS174T cells, murine antibody titrated. Also noted: Top: unit not given here. In general terms: In flow cytometry, cells or beads pass a laser one at a time.
B5 displayed an EC50 of 0.11 µg/mL and a Top of 296.
For B6, in that order: 0.395 µg/mL and 460.
The matching figures for B7: 0.87 µg/mL and 469.
As for B8, the EC50 is 0.542 µg/mL and the Top amounted to 500.
In turn, B9 had an EC50 of 0.273 µg/mL and a Top of 457.
The matching figures for B10: 0.164 µg/mL and 445.
With B11, it took 0.0472 µg/mL to reach a half-maximal effect (EC50) and the Top is 878.
Molecule B14 registered an EC50 of 3.43 µg/mL and a Top of 382.

The next assay deals with T1, MUC17 on LS174T colorectal cancer cells. Described as above. The arrangement: Top: unit not given here.
In the case of B12, the half-maximal effective concentration (EC50) worked out at 0.00656 µg/mL.
B13 came in with a concentration giving a half-maximal response (EC50) of 0.024 µg/mL.

The next assay has the same target. In words: flow cytometry on LS174T cells, chimeric antibody titrated.
The molecule B3 gave an EC50 of 0.0435 nM.
